These results are taken from paper PMC4797271.

Common to all, as to assay: EMSA
(In general: In EMSA bound probe runs differently from free probe, usually more slowly.)

Data set [1] deals with T1, ComA (Bacillus subtilis (W168?)) (UniProt P14204).
T1 sequence: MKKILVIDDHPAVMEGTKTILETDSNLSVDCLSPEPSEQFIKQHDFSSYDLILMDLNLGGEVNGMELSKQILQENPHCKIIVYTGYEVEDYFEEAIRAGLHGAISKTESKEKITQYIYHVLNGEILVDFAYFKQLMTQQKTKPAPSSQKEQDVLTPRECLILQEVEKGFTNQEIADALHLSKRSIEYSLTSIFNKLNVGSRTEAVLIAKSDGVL
Conditions: EMSA: 10 mM HEPES pH 7.6, 2 mM MgCl2, 0.1 mM EDTA, 200 mM KCl, 5 mM DTT, 10% glycerol, 10 ng DNA in 15 ul, 20 min, room temperature.

Data set [2] has as its target T2, ComA;RNA polymerase alpha subunit (Bacillus subtilis (W168?);Bacillus subtilis) (UniProt P14204+P20429).
T2 sequence 1: T1 sequence
T2 sequence 2: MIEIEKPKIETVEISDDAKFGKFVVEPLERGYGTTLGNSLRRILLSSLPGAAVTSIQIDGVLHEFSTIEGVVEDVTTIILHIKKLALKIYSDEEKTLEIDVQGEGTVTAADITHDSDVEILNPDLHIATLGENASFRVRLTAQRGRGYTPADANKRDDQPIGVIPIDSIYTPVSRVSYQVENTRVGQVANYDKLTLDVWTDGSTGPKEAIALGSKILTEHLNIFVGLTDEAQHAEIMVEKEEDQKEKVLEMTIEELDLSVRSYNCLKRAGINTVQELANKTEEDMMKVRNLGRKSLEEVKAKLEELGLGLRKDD
As to conditions: EMSA: 10 mM HEPES pH 7.6, 2 mM MgCl2, 0.1 mM EDTA, 200 mM KCl, 5 mM DTT, 10% glycerol; 10 ng DNA in 15 ul, 20 min, room temperature.

In data set [3] the target is ComA;sigma factor sigmaA (Bacillus subtilis (W168?);Bacillus subtilis) (UniProt P14204+P06224). As to conditions: EMSA: 10 mM HEPES pH 7.6, 2 mM MgCl2, 0.1 mM EDTA, 200 mM KCl, 5 mM DTT, 10% glycerol; 10 ng DNA in 15 ul, 20 min, room temperature.
Sequence of ComA;sigma factor sigmaA (Bacillus subtilis (W168?);Bacillus subtilis) (P06224 whole entry, one chain of several): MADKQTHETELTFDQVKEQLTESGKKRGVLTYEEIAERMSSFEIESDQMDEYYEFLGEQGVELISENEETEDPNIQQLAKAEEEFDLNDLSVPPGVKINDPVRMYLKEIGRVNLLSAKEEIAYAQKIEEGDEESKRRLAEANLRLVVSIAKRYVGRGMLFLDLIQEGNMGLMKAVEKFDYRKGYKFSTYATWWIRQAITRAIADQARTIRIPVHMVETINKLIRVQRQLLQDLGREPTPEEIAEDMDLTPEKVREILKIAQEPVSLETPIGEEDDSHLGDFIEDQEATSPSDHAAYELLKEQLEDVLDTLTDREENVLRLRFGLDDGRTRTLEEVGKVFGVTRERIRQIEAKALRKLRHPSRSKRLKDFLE

For “AAAACCAAAAGGCCAATGTCGGCCTTTTGGTTTTTTTGCGGTCTTTGCGGTGGGATTTTGCAGAATGCCGCAATAGGATAGCGGAACATTTTCGGTTCTGAATGTCCCTCAATTTGCTATTATATTTTTGTG (double strand) [Ppel]”, in data set [1], the binding entry is recorded as “binds”. On the same count and under the same terms, the entry for “GTTACTGTCAAGTCGCAAAAGAATTGCTATGACCGAAAAAAAACCGCAAAGGAATAGATATAAGGTACCTTTTTGCAATTCATCTTTGTAAAATAAAGGTTATTCTGACATAATACAATTAATGTAAAAATTCGCACAATTTTATGTAAGGATGGGGGAATTTTC (double strand) [PrapI]” is “binds”; for NCrapI (no DR) it is greater than 9.6 µM. Still for that read-out and setting: the figure for NCyddk (no DR) is greater than 9.6 µM. Turning to PDR ex1 (RE3 T1C), the binding signal (fold reduced affinity) in data set [1] was 2. In data set [1], PDR ex3 (RE3 G3A) had a binding greater than 9.6 µM. Regarding PDR ex5 (RE3 G5A), the binding in data set [1] was greater than 9.6 µM. For the substance PDR ex11 (RE4 G5A), the binding in data set [1] is greater than 9.6 µM. On the same count and under the same terms, then PDR ex12 (RE4 G6A), with greater than 9.6 µM. Consider PIR-PDR core module fragment, for which the Kd in data set [1] (apparent Kd, Hill coefficient 1.4) was 2.4 µM. Consider “TAGATTTCCTCCGACCTAATTTAATCCATTGTTTGTAAACATTTCATATCTAATTATATAACATAGACTCCTATTCTAACTACTTATTTTAAAGCAGTCTGGATTGTTTGGGTAATTCATAAAAAAATAAAAGAAAGAAGGAGGAATAGAGTTTTTCTTTTTTTTGTTTGCAATGTTACTGTCAAGTCGCAAAAGAATTGCTATGACCGAAAAAAAACCGCAAAGGAATAGATATAAGGTACCTTTTTGC (double strand) [Pyddk]”, for which the binding result in data set [1] is reported as “binds”. With “TTAATCCCCCCTTTTGAATTACCCGAGATATGTCATATTTTATCATATTTACAAGAAAAAGAAGAACGCAAAATAACCGCAATTGTCGAATTTCGGCTAACCGCAACAAAAAAGCACG (double strand) [PrapA]”, the binding result in data set [1], in data set [2] and in data set [3] was “binds” throughout.
